Results published in paper PMC11574045, “A cofactor-induced repressive type of transcription factor condensation can be induced by synthetic peptides to suppress tumorigenesis” (The EMBO Journal, 2024).

Tested on: HEK293FT cells transfected with TF library
Assay: Screening of TF condensates based on fluorescent puncta
Format: cell-based
Settings: Figure 1B numerical data; TF library screen, one value per transcriptional factor
Experimental: TF plasmids were automatically added to black-walled 384-well plates at 80 ng per well to reach a final concentration of 1.6 μg/ml. Polyethylenimine (PEI, Sigma) was then added to the plasmid-loaded plates at 240 ng per well (4.8 μg/ml). Subsequently, HEK293FT cells were seeded into the plate at 2000 cells per well. After 60 h, cells were cultured in medium with or without glucose for 12 h, and then fixed with 4% paraformaldehyde (PFA) at room temperature for 30 min. After three washes with PBS, fixed cells were permeabilized with 0.05% Triton X-100 for 15 min. Thereafter, cells were blocked with 5% BSA for 1 h, and then incubated overnight with anti-Flag (Sigma F3165, 1:200) and anti-GAL4 (Abbkine ABP57232, 1:200) primary antibodies at 4 °C. The cells were then gently washed with PBS, followed by being incubated with Alexa Fluor Plus 488 goat anti-mouse IgG secondary antibody (Thermo A32723, 1:400) or Alexa Fluor Plus 488 goat anti-rabbit IgG secondary antibody (Thermo A32731, 1:400) for 1 h. The plates were kept at 4 °C in the dark before being analyzed using an Opera System (Perkin Elmer). Fifty random fields per well were scanned and analyzed using the Columbus Plus Image Data Storage and Analysis System (Perkin Elmer).

B1: DBX2 (protein, UniProt Q6ZNG2 1-339, looked up)
Homeobox protein DBX2: MLPSAVAAHAGAYWDVVASSALLNLPAAPGFGNLGKSFLIENLLRVGGAPTPRLQPPAPHDPATALATAGAQLRPLPASPVPLKLCPAAEQVSPAGAPYGTRWAFQVLSPSADSARLPGRAPGDRDCTFQPSAPAPSKPFLLSTPPFYSACCGGSCRRPASSTAFPREESMLPLLTQDSNSKARRGILRRAVFSEDQRKALEKMFQKQKYISKTDRKKLAINLGLKESQVKIWFQNRRMKWRNSKEKEVLSNRCIQEVGLQEDPLSRSALGFPSPCPSIWDVPQQHSSPRWRENSPEPSERLIQESSGAPPPEANSLQGALYLCSEEEAGSKGVLTGAV
Z score of condensed fraction: 2.182

B2: DP-1 (protein, UniProt Q14186 1-410, looked up)
Transcription factor Dp-1: MAKDAGLIEANGELKVFIDQNLSPGKGVVSLVAVHPSTVNPLGKQLLPKTFGQSNVNIAQQVVIGTPQRPAASNTLVVGSPHTPSTHFASQNQPSDSSPWSAGKRNRKGEKNGKGLRHFSMKVCEKVQRKGTTSYNEVADELVAEFSAADNHILPNESAYDQKNIRRRVYDALNVLMAMNIISKEKKEIKWIGLPTNSAQECQNLEVERQRRLERIKQKQSQLQELILQQIAFKNLVQRNRHAEQQASRPPPPNSVIHLPFIIVNTSKKTVIDCSISNDKFEYLFNFDNTFEIHDDIEVLKRMGMACGLESGSCSAEDLKMARSLVPKALEPYVTEMAQGTVGGVFITTAGSTSNGTRFSASDLTNGADGMLATSSNGSQYSGSRVETPVSYVGEDDEEDDDFNENDEDD
Z score of condensed fraction: 0.7932

B3: DMRTA1 (protein, UniProt Q5VZB9 1-504, looked up)
Doublesex- and mab-3-related …: MERSQCGSRDRGVSGRPHLAPGLVVAAPPPPSPALPVPSGMQVPPAFLRPPSLFLRAAAAAAAAAAATSGSGGCPPAPGLESGVGAVGCGYPRTPKCARCRNHGVVSALKGHKRFCRWRDCACAKCTLIAERQRVMAAQVALRRQQAQEESEARGLQRLLCSGLSWPPGGRASGGGGRAENPQSTGGPAAGAALGLGALRQASGSATPAFEVFQQDYPEEKQEQKESKCESCQNGQEELISKSHQLYLGSSSRSNGVIGKQSIGSSISEYSNKPDSILSPHPGEQSGGEESPRSLSSSDLESGNESEWVKDLTATKASLPTVSSRPRDPLDILTKIFPNYRRSRLEGILRFCKGDVVQAIEQVLNGKEHKPDNRNLANSEELENTAFQRASSFSLAGIGFGTLGNKSAFSPLQTTSASYGGDSSLYGVNPRVGISPLRLAYSSAGRGLSGFMSPYLTPGLVPTLPFRPALDYAFSGMIRDSSYLSSKDSITCGRLYFRPNQDNP
Z score of condensed fraction: -0.1434

B4: DDX17 (protein, UniProt Q92841 1-729, looked up)
Probable ATP-dependent RNA …: MPTGFVAPILCVLLPSPTREAATVASATGDSASERESAAPAAAPTAEAPPPSVVTRPEPQALPSPAIRAPLPDLYPFGTMRGGGFGDRDRDRDRGGFGARGGGGLPPKKFGNPGERLRKKKWDLSELPKFEKNFYVEHPEVARLTPYEVDELRRKKEITVRGGDVCPKPVFAFHHANFPQYVMDVLMDQHFTEPTPIQCQGFPLALSGRDMVGIAQTGSGKTLAYLLPAIVHINHQPYLERGDGPICLVLAPTRELAQQVQQVADDYGKCSRLKSTCIYGGAPKGPQIRDLERGVEICIATPGRLIDFLESGKTNLRRCTYLVLDEADRMLDMGFEPQIRKIVDQIRPDRQTLMWSATWPKEVRQLAEDFLRDYTQINVGNLELSANHNILQIVDVCMESEKDHKLIQLMEEIMAEKENKTIIFVETKRRCDDLTRRMRRDGWPAMCIHGDKSQPERDWVLNEFRSGKAPILIATDVASRGLDVEDVKFVINYDYPNSSEDYVHRIGRTARSTNKGTAYTFFTPGNLKQARELIKVLEEANQAINPKLMQLVDHRGGGGGGGGRSRYRTTSSANNPNLMYQDECDRRLRGVKDGGRRDSASYRDRSETDRAGYANGSGYGSPNSAFGAQAGQYTYGQGTYGAAAYGTSSYTAQEYGAGTYGASSTTSTGRSSQSSSQQFSGIGRSGQQPQPLMSQQFAQPPGATNMIGYMGQTAYQYPPPPPPPPPSRK
Z score of condensed fraction: 0.6597

B5: DPRX (protein, UniProt A6NFQ7 1-191, looked up)
Divergent paired-related …: MPGSEDLRKGKDQMHSHRKRTMFTKKQLEDLNILFNENPYPNPSLQKEMASKIDIHPTVLQVWFKNHRAKLKKAKCKHIHQKQETPQPPIPEGGVSTSVGLRNADTLPRLPNAAHPIGLVYTGHRVPSFQLILYPNLKVPANDFIGHRIVHFGCCRDPNIYCLYPILESQVCAPSFHSGSPACSSNQSRER
Z score of condensed fraction: -0.8656

B6: DLX4 (protein, UniProt Q92988 1-240, looked up)
Homeobox protein DLX-4: MTSLPCPLPGRDASKAVFPDLAPVPSVAAAYPLGLSPTTAASPNLSYSRPYGHLLSYPYTEPANPGDSYLSCQQPAALSQPLCGPAEHPQELEADSEKPRLSPEPSERRPQAPAKKLRKPRTIYSSLQLQHLNQRFQHTQYLALPERAQLAAQLGLTQTQVKIWFQNKRSKYKKLLKQNSGGQEGDFPGRTFSVSPCSPPLPSLWDLPKAGTLPTSGYGNSFGAWYQHHSSDVLASPQMM
Z score of condensed fraction: -0.356

B7: DLX2 (protein, UniProt Q07687 1-328, looked up)
Homeobox protein DLX-2: MTGVFDSLVADMHSTQIAASSTYHQHQQPPSGGGAGPGGNSSSSSSLHKPQESPTLPVSTATDSSYYTNQQHPAGGGGGGGSPYAHMGSYQYQASGLNNVPYSAKSSYDLGYTAAYTSYAPYGTSSSPANNEPEKEDLEPEIRIVNGKPKKVRKPRTIYSSFQLAALQRRFQKTQYLALPERAELAASLGLTQTQVKIWFQNRRSKFKKMWKSGEIPSEQHPGASASPPCASPPVSAPASWDFGVPQRMAGGGGPGSGGSGAGSSGSSPSSAASAFLGNYPWYHQTSGSASHLQATAPLLHPTQTPQPHHHHHHHGGGGAPVSAGTIF
Z score of condensed fraction: 0.04096

B8: DDIT3 (protein, UniProt P35638 1-169, looked up)
DNA damage-inducible …: MAAESLPFSFGTLSSWELEAWYEDLQEVLSSDENGGTYVSPPGNEEEESKIFTTLDPASLAWLTEEEPEPAEVTSTSQSPHSPDSSQSSLAQEEEEEDQGRTRKRKQSGHSPARAGKQRMKEKEQENERKVAQLAEENERLKQEIERLTREVEATRRALIDRMVNLHQA
Z score of condensed fraction: -1.245

B9: DMP-1 (protein, UniProt Q9Y222 1-760, looked up)
Cyclin-D-binding Myb-like …: MSTVEEDSDTVTVETVNSVTLTQDTEGNLILHCPQNEADEIDSEDSIEPPHKRLCLSSEDDQSIDDSTPCISVVALPLSENDQSFEVTMTATTEVADDEVTEGTVTQIQILQNEQLDEISPLGNEEVSAVSQAWFTTKEDKDSLTNKGHKWKQGMWSKEEIDILMNNIERYLKARGIKDATEIIFEMSKDERKDFYRTIAWGLNRPLFAVYRRVLRMYDDRNHVGKYTPEEIEKLKELRIKHGNDWATIGAALGRSASSVKDRCRLMKDTCNTGKWTEEEEKRLAEVVHELTSTEPGDIVTQGVSWAAVAERVGTRSEKQCRSKWLNYLNWKQSGGTEWTKEDEINLILRIAELDVADENDINWDLLAEGWSSVRSPQWLRSKWWTIKRQIANHKDVSFPVLIKGLKQLHENQKNNPTLLENKSGSGVPNSNTNSSVQHVQIRVARLEDNTAISSSPMAALQIPVQITHVSSADSPATVDSETITLNSGTLQTFEILPSFHLQPTGTPGTYLLQTSSSQGLPLTLTASPTVTLTAAAPASPEQIIVHALSPEHLLNTSDNVTVQCHTPRVIIQTVATEDITSSISQAELTVDSDIQSSDFPEPPDALEADTFPDEIHHPKMTVEPSFNDAHVSKFSDQNSTELMNSVMVRTEEEISDTDLKQEESPSDLASAYVTEGLESPTIEEQVDQTIDDETILIVPSPHGFIQASDVIDTESVLPLTTLTDPILQHHQEESNIIGSSLGSPVSEDSKDVEDLVNCH
Z score of condensed fraction: 2.192

B10: ACTL6B (protein, UniProt Q99MR0 1-426, looked up)
Actin-like protein 6B: MSGGVYGGDEVGALVFDIGSFSVRAGYAGEDCPKADFPTTVGLLAAEEGGGLELEGEKEKKGKIFHIDTNALHVPRDGAEVMSPLKNGMIEDWECFRAILDHTYSKHVKSEPNLHPVLMSEAPWNTRAKREKLTELMFEQYNIPAFFLCKTAVLTAFANGRSTGLVLDSGATHTTAIPVHDGYVLQQGIVKSPLAGDFISMQCRELFQEMAIDIIPPYMIAAKEPVREGAPPNWKKKEKLPQVSKSWHNYMCNEVIQDFQASVLQVSDSPYDEQVAAQMPTVHYEMPNGYNTDYGAERLRIPEGLFDPSNVKGLSGNTMLGVGHVVTTSIGMCDIDIRPGLYGSVIVTGGNTLLQGFTDRLNRELSQKTPPSMRLKLIASNSTMERKFSPWIGGSILASLGTFQQMWISKQEYEEGGKQCVERKCP
Z score of condensed fraction: 0.5544

B11: DDX20 (protein, UniProt Q9UHI6 1-824, looked up)
Probable ATP-dependent RNA …: MAAAFEASGALAAVATAMPAEHVAVQVPAPEPTPGPVRILRTAQDLSSPRTRTGDVLLAEPADFESLLLSRPVLEGLRAAGFERPSPVQLKAIPLGRCGLDLIVQAKSGTGKTCVFSTIALDSLVLENLSTQILILAPTREIAVQIHSVITAIGIKMEGLECHVFIGGTPLSQDKTRLKKCHIAVGSPGRIKQLIELDYLNPGSIRLFILDEADKLLEEGSFQEQINWIYSSLPASKQMLAVSATYPEFLANALTKYMRDPTFVRLNSSDPSLIGLKQYYKVVNSYPLAHKVFEEKTQHLQELFSRIPFNQALVFSNLHSRAQHLADILSSKGFPAECISGNMNQNQRLDAMAKLKHFHCRVLISTDLTSRGIDAEKVNLVVNLDVPLDWETYMHRIGRAGRFGTLGLTVTYCCRGEEENMMMRIAQKCNINLLPLPDPIPSGLMEECVDWDVEVKAAVHTYGIASVPNQPLKKQIQKIERTLQIQKAHGDHMASSRNNSVSGLSVKSKNNTKQKLPVKSHSECGIIEKATSPKELGCDRQSEEQMKNSVQTPVENSTNSQHQVKEALPVSLPQIPCLSSFKIHQPYTLTFAELVEDYEHYIKEGLEKPVEIIRHYTGPGDQTVNPQNGFVRNKVIEQRVPVLASSSQSGDSESDSDSYSSRTSSQSKGNKSYLEGSSDNQLKDSESTPVDDRISLEQPPNGSDTPNPEKYQESPGIQMKTRLKEGASQRAKQSRRNLPRRSSFRLQTEAQEDDWYDCHREIRLSFSDTYQDYEEYWRAYYRAWQEYYAAASHSYYWNAQRHPSWMAAYHMNTIYLQEMMHSNQ
Z score of condensed fraction: 1.184
